Data reported in the supplement of paper PMC10065799, “High-throughput profiling of sequence recognition by tyrosine kinases and SH2 domains using bacterial peptide display” (eLife, 2023).

What was measured:
SHP2-C SH2 = test: SH2 binding enrichment of the phosphorylated peptide, bacterial display (enrichment ratio); higher = better substrate or ligand; peptides without Tyr show the background
Grb2 SH2 = Grb2 SH2 (UniProt P62993); test: as above
c-Src SH2 = test: as above
MERTK = MERTK (UniProt Q12866); test: phosphorylation enrichment, bacterial display (enrichment ratio); higher = better substrate or ligand; peptides without Tyr show the background
Chain of MERTK (Q12866 whole entry, looked up): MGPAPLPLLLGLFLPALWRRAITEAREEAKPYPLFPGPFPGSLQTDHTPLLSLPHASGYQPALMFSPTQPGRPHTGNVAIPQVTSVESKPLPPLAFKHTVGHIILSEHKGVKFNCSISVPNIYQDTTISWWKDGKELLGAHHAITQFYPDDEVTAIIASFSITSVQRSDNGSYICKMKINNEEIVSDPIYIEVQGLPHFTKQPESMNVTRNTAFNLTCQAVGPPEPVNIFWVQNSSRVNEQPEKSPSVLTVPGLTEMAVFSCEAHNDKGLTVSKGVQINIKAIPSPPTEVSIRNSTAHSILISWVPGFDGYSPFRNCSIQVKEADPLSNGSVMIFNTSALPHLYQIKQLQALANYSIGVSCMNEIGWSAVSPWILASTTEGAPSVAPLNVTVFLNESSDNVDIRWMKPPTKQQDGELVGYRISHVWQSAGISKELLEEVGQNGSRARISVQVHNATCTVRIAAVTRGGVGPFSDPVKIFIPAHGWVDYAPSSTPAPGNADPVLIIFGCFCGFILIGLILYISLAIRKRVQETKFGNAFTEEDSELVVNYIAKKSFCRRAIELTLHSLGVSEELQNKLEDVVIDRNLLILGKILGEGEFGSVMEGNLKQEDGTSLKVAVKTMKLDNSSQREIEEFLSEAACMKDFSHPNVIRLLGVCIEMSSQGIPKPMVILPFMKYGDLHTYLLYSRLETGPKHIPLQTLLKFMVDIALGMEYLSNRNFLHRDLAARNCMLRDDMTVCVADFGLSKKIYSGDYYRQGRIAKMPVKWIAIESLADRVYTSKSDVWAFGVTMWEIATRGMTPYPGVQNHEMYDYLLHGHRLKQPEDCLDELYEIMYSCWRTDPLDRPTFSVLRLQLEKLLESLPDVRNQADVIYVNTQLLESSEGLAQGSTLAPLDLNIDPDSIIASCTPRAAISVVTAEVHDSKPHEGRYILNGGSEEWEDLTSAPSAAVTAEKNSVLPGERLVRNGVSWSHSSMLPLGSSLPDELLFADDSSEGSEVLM

EPHB1 = EPHB1 (UniProt P54762); test: as above
Chain of EPHB1 (P54762 whole entry, looked up): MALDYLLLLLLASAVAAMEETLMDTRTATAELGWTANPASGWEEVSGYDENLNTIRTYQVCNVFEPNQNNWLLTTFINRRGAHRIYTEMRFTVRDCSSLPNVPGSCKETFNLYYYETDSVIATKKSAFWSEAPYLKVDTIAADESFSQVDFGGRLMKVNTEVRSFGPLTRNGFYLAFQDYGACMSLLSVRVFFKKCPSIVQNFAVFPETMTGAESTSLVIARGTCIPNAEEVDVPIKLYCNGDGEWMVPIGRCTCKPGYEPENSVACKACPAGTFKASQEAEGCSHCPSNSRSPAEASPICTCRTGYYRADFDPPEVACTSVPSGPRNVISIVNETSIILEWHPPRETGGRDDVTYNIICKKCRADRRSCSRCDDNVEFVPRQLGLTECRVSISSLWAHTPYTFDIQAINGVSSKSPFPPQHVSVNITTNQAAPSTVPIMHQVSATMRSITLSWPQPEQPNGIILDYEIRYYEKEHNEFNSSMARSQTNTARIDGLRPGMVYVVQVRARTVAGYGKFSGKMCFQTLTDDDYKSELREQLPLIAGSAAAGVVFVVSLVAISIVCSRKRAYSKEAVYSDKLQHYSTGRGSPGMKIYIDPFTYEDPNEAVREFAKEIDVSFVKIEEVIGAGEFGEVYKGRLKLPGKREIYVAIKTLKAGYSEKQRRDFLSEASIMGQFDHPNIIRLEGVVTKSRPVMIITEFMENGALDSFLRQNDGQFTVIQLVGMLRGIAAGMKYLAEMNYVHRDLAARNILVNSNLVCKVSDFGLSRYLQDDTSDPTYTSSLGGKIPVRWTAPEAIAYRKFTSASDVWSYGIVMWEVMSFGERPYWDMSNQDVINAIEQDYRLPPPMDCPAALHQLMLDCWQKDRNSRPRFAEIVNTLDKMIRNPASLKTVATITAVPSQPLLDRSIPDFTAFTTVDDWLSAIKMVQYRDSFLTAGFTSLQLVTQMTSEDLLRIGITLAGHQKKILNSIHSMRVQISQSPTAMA

Fyn = Fyn (UniProt P06241); test: as above
AncSZ = test: as above
Fes = Fes (UniProt P07332); test: as above
Chain of Fes (P07332 whole entry, looked up): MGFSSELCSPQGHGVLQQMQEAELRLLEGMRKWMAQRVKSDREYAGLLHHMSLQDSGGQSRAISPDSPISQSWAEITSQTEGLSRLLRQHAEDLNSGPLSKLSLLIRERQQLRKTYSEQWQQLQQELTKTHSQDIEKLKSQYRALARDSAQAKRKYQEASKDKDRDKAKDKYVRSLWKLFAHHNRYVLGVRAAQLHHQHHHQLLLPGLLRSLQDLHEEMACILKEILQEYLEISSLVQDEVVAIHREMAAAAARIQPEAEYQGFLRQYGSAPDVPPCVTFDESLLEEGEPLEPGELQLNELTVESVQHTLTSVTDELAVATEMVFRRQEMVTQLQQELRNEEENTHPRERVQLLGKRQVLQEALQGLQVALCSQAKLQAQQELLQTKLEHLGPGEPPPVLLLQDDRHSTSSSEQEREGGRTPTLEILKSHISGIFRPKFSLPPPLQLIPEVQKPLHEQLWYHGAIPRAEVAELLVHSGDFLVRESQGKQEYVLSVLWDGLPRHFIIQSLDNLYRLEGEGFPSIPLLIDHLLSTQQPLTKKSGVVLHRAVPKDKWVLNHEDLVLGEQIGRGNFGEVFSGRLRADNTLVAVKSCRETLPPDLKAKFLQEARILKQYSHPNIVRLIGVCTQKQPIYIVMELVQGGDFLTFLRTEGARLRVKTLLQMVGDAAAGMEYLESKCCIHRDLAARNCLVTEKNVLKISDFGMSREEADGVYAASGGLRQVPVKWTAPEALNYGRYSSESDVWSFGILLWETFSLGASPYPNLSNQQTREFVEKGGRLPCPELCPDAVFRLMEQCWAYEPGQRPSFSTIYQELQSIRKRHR

Hck = Hck (UniProt P08631); test: as above
Jak2 = Jak2 (UniProt O60674); test: as above
Chain of Jak2 (O60674 whole entry, looked up): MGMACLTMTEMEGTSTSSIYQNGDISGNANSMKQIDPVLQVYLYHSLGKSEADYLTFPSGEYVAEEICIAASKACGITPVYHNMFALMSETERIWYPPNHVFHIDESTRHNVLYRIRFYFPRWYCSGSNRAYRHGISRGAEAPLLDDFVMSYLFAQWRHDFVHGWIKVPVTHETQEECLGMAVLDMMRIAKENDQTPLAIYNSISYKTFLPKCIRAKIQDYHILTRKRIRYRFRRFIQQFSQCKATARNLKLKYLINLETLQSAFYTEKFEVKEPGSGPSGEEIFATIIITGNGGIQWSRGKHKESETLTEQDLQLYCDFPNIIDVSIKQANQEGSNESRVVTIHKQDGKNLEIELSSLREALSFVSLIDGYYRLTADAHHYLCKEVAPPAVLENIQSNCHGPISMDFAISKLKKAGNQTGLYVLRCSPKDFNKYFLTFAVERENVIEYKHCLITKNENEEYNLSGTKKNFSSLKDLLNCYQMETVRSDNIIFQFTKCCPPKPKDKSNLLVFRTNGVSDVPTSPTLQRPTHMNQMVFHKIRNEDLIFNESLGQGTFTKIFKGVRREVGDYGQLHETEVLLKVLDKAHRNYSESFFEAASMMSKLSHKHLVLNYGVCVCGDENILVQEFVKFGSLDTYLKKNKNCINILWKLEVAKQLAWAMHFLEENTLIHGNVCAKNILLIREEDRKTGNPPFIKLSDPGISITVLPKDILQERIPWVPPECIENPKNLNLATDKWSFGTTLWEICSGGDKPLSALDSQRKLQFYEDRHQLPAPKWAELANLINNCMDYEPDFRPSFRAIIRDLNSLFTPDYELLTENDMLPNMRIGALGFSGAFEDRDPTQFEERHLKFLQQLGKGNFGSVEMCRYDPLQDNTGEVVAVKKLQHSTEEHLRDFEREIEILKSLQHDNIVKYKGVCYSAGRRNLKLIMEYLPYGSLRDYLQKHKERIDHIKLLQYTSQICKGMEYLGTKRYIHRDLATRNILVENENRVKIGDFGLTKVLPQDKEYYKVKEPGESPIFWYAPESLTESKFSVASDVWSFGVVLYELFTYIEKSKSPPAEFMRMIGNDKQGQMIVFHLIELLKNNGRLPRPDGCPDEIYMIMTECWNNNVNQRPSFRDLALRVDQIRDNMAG

FGFR3 = FGFR3 (UniProt P22607); test: as above
EPHB2 = EPHB2 (UniProt P29323); test: as above
Chain of EPHB2 (P29323 whole entry, looked up): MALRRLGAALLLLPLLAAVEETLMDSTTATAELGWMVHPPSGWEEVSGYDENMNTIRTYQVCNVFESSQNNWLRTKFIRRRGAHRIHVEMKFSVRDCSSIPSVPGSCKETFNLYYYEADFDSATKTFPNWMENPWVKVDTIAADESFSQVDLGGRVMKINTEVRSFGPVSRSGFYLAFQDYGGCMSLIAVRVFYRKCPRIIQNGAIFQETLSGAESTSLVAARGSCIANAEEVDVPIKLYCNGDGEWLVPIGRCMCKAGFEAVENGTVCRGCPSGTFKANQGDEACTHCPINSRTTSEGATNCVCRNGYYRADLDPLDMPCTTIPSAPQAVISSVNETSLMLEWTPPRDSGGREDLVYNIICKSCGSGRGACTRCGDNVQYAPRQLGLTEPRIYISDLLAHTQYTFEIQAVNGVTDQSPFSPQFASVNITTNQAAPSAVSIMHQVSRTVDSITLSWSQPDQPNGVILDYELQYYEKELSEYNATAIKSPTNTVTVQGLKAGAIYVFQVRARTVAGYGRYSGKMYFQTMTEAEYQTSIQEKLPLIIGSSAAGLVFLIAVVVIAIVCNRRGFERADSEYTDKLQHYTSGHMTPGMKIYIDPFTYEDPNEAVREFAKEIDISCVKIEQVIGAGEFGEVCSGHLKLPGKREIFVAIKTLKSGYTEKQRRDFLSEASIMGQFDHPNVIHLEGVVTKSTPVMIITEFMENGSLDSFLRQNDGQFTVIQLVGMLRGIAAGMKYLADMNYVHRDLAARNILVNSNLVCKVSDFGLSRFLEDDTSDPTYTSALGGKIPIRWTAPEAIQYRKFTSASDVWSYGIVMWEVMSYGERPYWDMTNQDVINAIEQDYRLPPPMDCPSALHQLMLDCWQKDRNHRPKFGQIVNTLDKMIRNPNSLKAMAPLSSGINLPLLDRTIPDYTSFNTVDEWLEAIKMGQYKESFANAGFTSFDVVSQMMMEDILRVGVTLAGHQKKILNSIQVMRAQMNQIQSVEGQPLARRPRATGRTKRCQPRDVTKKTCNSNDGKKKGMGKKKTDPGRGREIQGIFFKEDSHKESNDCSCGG

Fer (mouse) = test: as above
c-Abl (mouse) = test: as above
FGFR1 = FGFR1 (UniProt P11362); test: as above
c-Src = test: as above
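For SH2 binding enrichment of the phosphorylated peptide, bacterial display in this document: peptide library displayed on the E. coli surface as eCPX fusions, selected cells deep-sequenced, score is each peptide's frequency after selection divided by its frequency in the input.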
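For phosphorylation enrichment, bacterial display in this document: 11-residue human phosphosite peptides and single-mutation variants displayed on the E. coli surface, counted by deep sequencing, each peptide's frequency after selection divided by its frequency in the unselected input library; frequency after pTyr selection over input frequency; kinase dosed for 20-30% of maximal phosphorylation in three min.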

| SH2 binding enrichment (SHP2-C SH2) | SH2 binding enrichment (Grb2 SH2) | SH2 binding enrichment (c-Src SH2) | Sequence | phosphorylation enrichment (MERTK) | phosphorylation enrichment (EPHB1) | phosphorylation enrichment (Fyn) | phosphorylation enrichment (AncSZ) | phosphorylation enrichment (Fes) | phosphorylation enrichment (Hck) | phosphorylation enrichment (Jak2) | phosphorylation enrichment (FGFR3) | phosphorylation enrichment (EPHB2) | phosphorylation enrichment (Fer (mouse)) | phosphorylation enrichment (c-Abl (mouse)) | phosphorylation enrichment (FGFR1) | phosphorylation enrichment (c-Src) |
| --- | --- | --- | --- | --- | --- | --- | --- | --- | --- | --- | --- | --- | --- | --- | --- | --- |
| 0.704 | 1.02 | 0.619 | KQCSDYARELE [MYH3_Y1140_R1137C] | 0.557 | 0.597 | 0.552 | 1.23 | 1.26 | 0.571 | 1.19 | 0.769 | 0.605 | 0.578 | 0.929 | 0.654 | 0.514 |
| 0.645 | 0.968 | 0.629 | KRAAIYNPVIY [RHO_Y301_S297R] | 1.06 | 0.398 | 2.33 | 0.547 | 0.556 | 4.27 | 0.424 | 0.443 | 0.415 | 5.24 | 0.469 | 0.577 | 2.67 |
| 0.673 | 0.856 | 0.489 | KRIKLYNQEND [RPGRIP1L_Y448] | 0.439 | 0.306 | 0.377 | 0.643 | 0.681 | 0.379 | 0.502 | 0.459 | 0.387 | 0.388 | 0.612 | 0.412 | 0.353 |
| 0.377 | 0.549 | 0.493 | KRRGPYETSPS [PLPP7_Y172] | 0.405 | 0.345 | 0.491 | 0.599 | 0.495 | 0.399 | 0.539 | 0.397 | 0.403 | 0.446 | 0.526 | 0.414 | 0.614 |
| 0.855 | 1.03 | 0.585 | KSEMSCIDGEK [SORBS1_Y485_Y485C] | 0.406 | 0.491 | 0.431 | 0.862 | 1.06 | 0.447 | 0.658 | 0.686 | 0.567 | 0.44 | 0.793 | 0.522 | 0.423 |
| 0.717 | 0.87 | 0.537 | KTAFSYTSSST [SIM1_Y356_P352T] | 0.44 | 0.329 | 0.41 | 0.665 | 0.721 | 0.353 | 0.497 | 0.475 | 0.482 | 0.399 | 0.456 | 0.426 | 0.432 |
| 0.773 | 0.903 | 0.676 | KTEMLYHLTAR [XRCC2_Y59] | 2.06 | 0.53 | 0.73 | 1.09 | 0.982 | 0.977 | 0.928 | 0.858 | 0.541 | 0.419 | 0.897 | 0.821 | 0.965 |
| 1.17 | 1.25 | 0.966 | KVALPYKPYFY [POLE_Y100] | 0.556 | 0.589 | 0.465 | 0.778 | 0.963 | 0.485 | 0.962 | 0.658 | 0.438 | 0.346 | 0.681 | 0.47 | 0.858 |
| 0.667 | 0.787 | 0.613 | KVASVYEALGF [NT5C_Y65_P68L] | 7.59 | 8.22 | 10.3 | 0.88 | 0.989 | 8.84 | 0.595 | 0.574 | 4.25 | 4.62 | 0.697 | 0.607 | 6.25 |
| 1.77 | 1.27 | 1.25 | KWHREYNFKFV [RICTOR_Y835_S837F_YF] | 0.436 | 0.488 | 0.372 | 0.859 | 0.944 | 0.432 | 0.937 | 0.585 | 0.531 | 0.622 | 0.729 | 0.474 | 0.429 |
| 0.634 | 0.818 | 0.525 | LAIEGYVVVCK [RHO_Y136_R135G] | 0.528 | 0.75 | 0.604 | 1.5 | 1.41 | 0.747 | 1.09 | 1.02 | 0.826 | 0.459 | 0.991 | 0.707 | 0.526 |
| 0.881 | 1.47 | 0.877 | LCRFGYANTSE [SI_Y1233_YF] | 0.423 | 0.454 | 0.419 | 0.756 | 0.893 | 0.422 | 0.706 | 0.581 | 0.529 | 0.381 | 0.625 | 0.455 | 0.405 |
| 0.455 | 0.881 | 0.456 | LEPGIYIPEDD [XPNPEP3_Y455_I450L] | 0.653 | 0.716 | 0.705 | 1.58 | 1.5 | 0.558 | 1.24 | 1.22 | 0.717 | 0.709 | 0.974 | 0.556 | 0.518 |
| 0.785 | 0.619 | 0.529 | LEYAKYGSLRG [RET_Y809_V804L] | 0.687 | 3.25 | 1.87 | 0.63 | 0.765 | 2.57 | 0.55 | 0.618 | 2.96 | 2.26 | 1.73 | 0.651 | 2.49 |

Further lines, the sequence ahead of its results:

| Sequence | SH2 binding enrichment (SHP2-C SH2) | SH2 binding enrichment (Grb2 SH2) | SH2 binding enrichment (c-Src SH2) | phosphorylation enrichment (MERTK) | phosphorylation enrichment (EPHB1) | phosphorylation enrichment (Fyn) | phosphorylation enrichment (AncSZ) | phosphorylation enrichment (Fes) | phosphorylation enrichment (Hck) | phosphorylation enrichment (Jak2) | phosphorylation enrichment (FGFR3) | phosphorylation enrichment (EPHB2) | phosphorylation enrichment (Fer (mouse)) | phosphorylation enrichment (c-Abl (mouse)) | phosphorylation enrichment (FGFR1) | phosphorylation enrichment (c-Src) |
| --- | --- | --- | --- | --- | --- | --- | --- | --- | --- | --- | --- | --- | --- | --- | --- | --- |
| KPSLKYVTFGN [GALNTL5_Y404_G401S_YF] | 0.697 | 0.68 | 0.575 | 0.435 | 0.453 | 0.515 | 0.736 | 0.75 | 0.488 | 0.496 | 0.569 | 0.453 | 0.461 | 0.467 | 0.396 | 0.504 |
| KQQEIYQEVTQ [CD209_Y239_L242V] | 0.785 | 0.929 | 0.513 | 4.06 | 7.2 | 5.17 | 1.26 | 0.942 | 5.41 | 0.765 | 1.96 | 4.5 | 7.32 | 1.94 | 2.56 | 5.15 |
| KRAIGHFSATS [FAM120A_Y327_Y327H_YF] | 0.66 | 0.852 | 0.525 | 0.371 | 0.407 | 0.351 | 0.423 | 0.42 | 0.397 | 0.456 | 0.39 | 0.332 | 0.338 | 0.402 | 0.335 | 0.387 |
| KRTFEYEADKN [DENND2B_Y396] | 0.702 | 0.747 | 0.576 | 0.403 | 0.545 | 0.471 | 0.947 | 1.03 | 0.483 | 0.781 | 0.576 | 0.526 | 0.496 | 0.61 | 0.507 | 0.39 |
| KSLFHHRQFSA [CPS1_Y1491_Y1491H_YF] | 0.92 | 0.843 | 0.521 | 0.36 | 0.418 | 0.403 | 0.448 | 0.543 | 0.297 | 0.407 | 0.373 | 0.295 | 0.297 | 0.431 | 0.353 | 0.279 |
| KVPAIYGVDTR [CPS1_Y162] | 0.707 | 0.841 | 0.466 | 0.54 | 0.334 | 0.642 | 0.61 | 0.665 | 0.701 | 0.615 | 0.469 | 0.383 | 0.422 | 0.525 | 0.398 | 0.782 |
| KYGTNYRVGSS [CPO_Y278] | 1.23 | 1.01 | 0.835 | 0.377 | 0.307 | 0.416 | 0.438 | 0.549 | 0.415 | 0.403 | 0.362 | 0.388 | 0.308 | 0.466 | 0.338 | 0.389 |
| LADMNYVHRDL [EPHB2_Y742] | 0.667 | 0.676 | 0.305 | 0.796 | 0.762 | 0.481 | 1.51 | 1.6 | 0.916 | 0.916 | 0.801 | 0.565 | 0.933 | 0.923 | 0.714 | 0.721 |
| LARDMCDKEYY [MET_Y1230_Y1230C] | 0.593 | 0.714 | 0.952 | 0.84 | 0.853 | 0.902 | 1.64 | 1.89 | 0.834 | 2.02 | 0.828 | 1.01 | 0.897 | 1.06 | 0.995 | 0.849 |
| LAVVDYMRRQK [ATM_Y1915] | 0.652 | 0.675 | 0.531 | 0.513 | 0.285 | 0.413 | 0.674 | 0.655 | 0.453 | 0.605 | 0.437 | 0.337 | 0.374 | 0.604 | 0.373 | 0.553 |
| LDFNEYFRFLN [HPRT1_Y198_D201Y_YF] | 1.2 | 1.49 | 0.719 | 0.573 | 0.592 | 2.25 | 2.34 | 1.29 | 1.08 | 6.54 | 2.1 | 0.924 | 0.562 | 1.6 | 2.7 | 3.62 |
| LDFNEYFRNLN [HPRT1_Y198_D201N_YF] | 0.37 | 0.693 | 0.617 | 1.02 | 0.988 | 1 | 2.42 | 2.65 | 0.979 | 3.21 | 1.6 | 1.13 | 1.35 | 1.24 | 1.2 | 0.585 |
| LDLSFYHTSSS [EMD_Y182_P183H_YF] | 0.701 | 1 | 0.773 | 0.414 | 0.845 | 0.553 | 1.21 | 1.19 | 0.575 | 1.04 | 0.903 | 0.676 | 0.423 | 0.644 | 0.575 | 0.879 |
| LDLSFYTTSSS [EMD_Y182_P183T_YF] | 0.657 | 0.945 | 0.595 | 0.897 | 1.04 | 0.93 | 2.23 | 2.65 | 0.999 | 2.49 | 1.53 | 1.29 | 0.882 | 2.47 | 1.12 | 0.785 |
| LDLSYYTTSSS [EMD_Y182_P183T] | 0.64 | 0.73 | 1.49 | 0.731 | 0.978 | 0.967 | 1.84 | 1.36 | 1.01 | 1.93 | 1.21 | 0.863 | 0.635 | 0.982 | 1.07 | 0.908 |
| LDPDSYNMFEN [FOXC1_Y159] | 0.504 | 0.667 | 0.575 | 0.635 | 0.637 | 0.531 | 1.38 | 1.14 | 0.465 | 1.44 | 0.855 | 0.865 | 0.527 | 0.74 | 0.675 | 0.579 |
| LENQTYFRSFE [AKAP9_Y2482_K2484R] | 0.546 | 0.803 | 0.624 | 0.537 | 0.487 | 0.851 | 0.881 | 1.14 | 0.678 | 1.09 | 1.02 | 0.811 | 0.632 | 0.843 | 0.571 | 0.55 |
| LEQRPYRRESE [KCNJ12_Y427] | 0.945 | 0.621 | 0.267 | 0.618 | 0.591 | 0.91 | 0.746 | 1.01 | 0.52 | 0.461 | 0.666 | 0.643 | 0.367 | 0.519 | 0.333 | 0.385 |
| LFSNAYLSDLA [ALDH1A1_Y119_N121S_YF] | 0.601 | 0.783 | 0.36 | 1.81 | 2.12 | 1.23 | 2.21 | 2.92 | 0.974 | 2.06 | 1.42 | 1.15 | 1.31 | 2.14 | 2.39 | 2.79 |
